Test results as given in US20220411504A1 (Janssen / Centocor, published 2022).
Where two headings read alike, the source gives them in different places.

T1: DLL3 on tumor cells (SHP-77, HCC1833, G361) (human, UniProt Q9NYJ7 27-618)
T1 sequence: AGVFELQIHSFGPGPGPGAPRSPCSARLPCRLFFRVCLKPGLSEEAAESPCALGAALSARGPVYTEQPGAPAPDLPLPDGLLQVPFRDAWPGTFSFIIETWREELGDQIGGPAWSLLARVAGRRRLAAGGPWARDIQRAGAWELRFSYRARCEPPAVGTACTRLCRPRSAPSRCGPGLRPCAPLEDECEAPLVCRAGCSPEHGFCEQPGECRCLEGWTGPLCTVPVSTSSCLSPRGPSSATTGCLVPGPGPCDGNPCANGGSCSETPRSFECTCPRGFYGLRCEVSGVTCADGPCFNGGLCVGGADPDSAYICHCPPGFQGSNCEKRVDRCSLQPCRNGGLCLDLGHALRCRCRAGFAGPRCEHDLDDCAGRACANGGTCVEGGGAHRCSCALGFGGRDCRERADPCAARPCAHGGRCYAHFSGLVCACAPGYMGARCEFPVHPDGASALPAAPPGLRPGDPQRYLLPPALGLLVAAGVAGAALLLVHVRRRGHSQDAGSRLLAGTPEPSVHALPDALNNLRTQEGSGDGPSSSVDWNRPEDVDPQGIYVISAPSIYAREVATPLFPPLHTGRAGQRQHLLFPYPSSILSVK

T2: recombinant human DLL3 (human, UniProt Q9NYJ7 27-492)
T2 construct: also called DLL3 antigen; Delta-like protein 3
T2 sequence: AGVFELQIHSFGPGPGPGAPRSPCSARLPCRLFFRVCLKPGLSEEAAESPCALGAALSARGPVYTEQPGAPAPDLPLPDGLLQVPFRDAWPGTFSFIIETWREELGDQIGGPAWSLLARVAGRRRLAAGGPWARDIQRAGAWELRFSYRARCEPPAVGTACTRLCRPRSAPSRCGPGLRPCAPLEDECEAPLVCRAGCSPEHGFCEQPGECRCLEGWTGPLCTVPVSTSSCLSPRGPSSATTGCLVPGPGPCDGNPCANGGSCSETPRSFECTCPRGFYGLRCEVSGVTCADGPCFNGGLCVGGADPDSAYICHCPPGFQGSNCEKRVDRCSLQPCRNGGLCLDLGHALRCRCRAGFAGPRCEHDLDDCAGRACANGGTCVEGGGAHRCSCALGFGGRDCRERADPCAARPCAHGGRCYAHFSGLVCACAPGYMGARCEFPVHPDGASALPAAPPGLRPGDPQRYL


Tests used:
[1] = biological target: T3, HLA-G on cells (K562-HLA-G and HLA-G expressing tumor cells) (human); experiment: cell-based or functional assay
[2] = biological target: T4, Human CD3 epsilon (CD3ε) of the T cell receptor complex on cells (human, UniProt P07766 23-207); experiment: T cell binding (method not described)
T4 construct: On Jurkat cells and primary human (pan) T cells; also called T-cell surface glycoprotein CD3 epsilon chain; T3E
T4 sequence (P07766 23-207 limits assumed, one chain of several): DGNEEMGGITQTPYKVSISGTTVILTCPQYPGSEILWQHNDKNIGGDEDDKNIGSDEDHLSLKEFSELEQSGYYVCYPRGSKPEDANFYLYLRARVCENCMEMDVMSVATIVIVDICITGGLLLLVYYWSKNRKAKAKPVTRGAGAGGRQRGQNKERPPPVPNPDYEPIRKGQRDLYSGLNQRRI

[3] = biological target: T3, HLA-G on cells (K562-HLA-G and HLA-G …); experiment: K562-HLA-G cell binding (method not described)
[4] = biological target: T1, DLL3 on tumor cells (SHP-77, HCC1833, …); experiment: cell-based or functional assay
[5] = biological target: T4, Human CD3 epsilon (CD3ε) of the T cell …; experiment: flow cytometry on human pan T cells
recombinant human DLL3 [6] = biological target: T2, recombinant human DLL3; experiment: SPR (Biacore T200), antibody captured by goat anti-Fc, DLL3 titrated
recombinant human DLL3 [7] = biological target: T2, recombinant human DLL3; experiment: as above; remark: listed apart in the source

Binder	Cytotoxicity, EC50 (T cell-mediated, NCI-H2009-b2m target cells, 72 hr) [1] [nM]	EC50 [2] [nM]	EC50 [3] [nM]	Cytotoxicity, % lysis of SHP-77 cells (whole PBMCs, 1:1 ET, 30 nM) [4] [%]	binding result [5]	Kd (recombinant human DLL3 [6]) [nM]	Kd (recombinant human DLL3 [7]) [nM]
HC3B125 (bispecific antibody, human IgG1, lambda, L234A L235A, No codon for C-terminal K447; also called CD3B376-Fab-Fc x MHGB732-LH-scFv-Fc; HCB125) heavy: QVQLQQSGPRLVRPSQTLSLTCAISGDSVFNNNAAWSWIRQSPSRGLEWLGRTYYRSKWLYDYAVSVKSRITVNPDTSRNQFTLQLNSVTPEDTALYYCARGYSSSFDYWGQGTLVTVSSASTKGPSVFPLAPSSKSTSGGTAALGCLVKDYFPEPVTVSWNSGALTSGVHTFPAVLQSSGLYSLSSVVTVPSSSLGTQTYICNVNHKPSNTKVDKKVEPKSCDKTHTCPPCPAPEAAGGPSVFLFPPKPKDTLMISRTPEVTCVVVSVSHEDPEVKFNWYVDGVEVHNAKTKPREEQYNSTYRVVSVLTVLHQDWLNGKEYKCKVSNKALPAPIEKTISKAKGQPREPQVYVYPPSREEMTKNQVSLTCLVKGFYPSDIAVEWESNGQPENNYKTTPPVLDSDGSFALVSKLTVDKSRWQQGNVFSCSVMHEALHNHYTQKSLSLSPG light: QSALTQPASVSGSPGQSITISCTGTSSNIGTYKFVSWYQQHPDKAPKVLLYEVSKRPSGVSSRFSGSKSGNTASLTISGLQAEDQADYHCVSYAGSGTLLFGGGTKLTVLGQPKAAPSVTLFPPSSEELQANKATLVCLISDFYPGAVTVAWKADSSPVKAGVETTTPSKQSNNKYAASSYLSLTPEQWKSHRSYSCQVTHEGSTVEKTVAPTECS scFv: DIVMTQSPDSLAVSLGERATINCKSSQSVLHSSNNKNYLTWFQQKPGQPPKLLIYWASTRESGVPDRFSGSGSGTDFTLTISSLQAEDVAVYYCHQYYSTPPTFGQGTKVEIKGGSEGKSSGSGSESKSTGGSQVQLQQSGPGLVKPSQTLSLTCAISGDSVSSNSAAWNWIRQSPSRGLEWLGRTYYRSKWYNDYAVSVKSRITINPDTSKNQISLQLNSVTPEDTAVYYCAGDRRYGIVGLPFAYWGQGTLVTVSSEPKSSDKTHTCPPCPAPEAAGGPSVFLFPPKPKDTLMISRTPEVTCVVVSVSHEDPEVKFNWYVDGVEVHNAKTKPREEQYNSTYRVVSVLTVLHQDWLNGKEYKCKVSNKALPAPIEKTISKAKGQPREPQVYVLPPSREEMTKNQVSLLCLVKGFYPSDIAVEWESNGQPENNYLTWPPVLDSDGSFFLYSKLTVDKSRWQQGNVFSCSVMHEALHNHYTQKSLSLSPG	0.0565	60	12				
DL3B585 (bispecific antibody, human IgG1, lambda, L234A L235A, also called CD3B376-Fab; DL3B279-LH-scFv) scFv: DIQMTQSPSSLSASVGDRVTITCRASQGISNYLAWFQQKPGKAPKSLIYAASSLQSGVPSKFSGSGSGTDFTLTISSLQPEDFATYYCQQYNSYPYTFAQGTKLEIKGGSEGKSSGSGSESKSTGGSQVQLVQSGAEVKKPGASVKVSCKASGNTFTNYYIHWVRQAPGQGLEWMGIINPSGGSTSYAQKLQGRMTMTRDTSTSTVYMELSSLRSEDTAVYFCARQGPFIGDAFDIWGQGTMVTVSSEPKSSDKTHTCPPCPAPEAAGGPSVFLFPPKPKDTLMISRTPEVTCVVVSVSHEDPEVKFNWYVDGVEVHNAKTKPREEQYNSTYRVVSVLTVLHQDWLNGKEYKCKVSNKALPAPIEKTISKAKGQPREPQVYVLPPSREEMTKNQVSLLCLVKGFYPSDIAVEWESNGQPENNYLTWPPVLDSDGSFFLYSKLTVDKSRWQQGNVFSCSVMHEALHNHYTQKSLSLS heavy: QVQLQQSGPRLVRPSQTLSLTCAISGDSVFNNNAAWSWIRQSPSRGLEWLGRTYYRSKWLYDYAVSVKSRITVNPDTSRNQFTLQLNSVTPEDTALYYCARGYSSSFDYWGQGTLVTVSSASTKGPSVFPLAPSSKSTSGGTAALGCLVKDYFPEPVTVSWNSGALTSGVHTFPAVLQSSGLYSLSSVVTVPSSSLGTQTYICNVNHKPSNTKVDKKVEPKSCDKTHTCPPCPAPEAAGGPSVFLFPPKPKDTLMISRTPEVTCVVVSVSHEDPEVKFNWYVDGVEVHNAKTKPREEQYNSTYRVVSVLTVLHQDWLNGKEYKCKVSNKALPAPIEKTISKAKGQPREPQVYVYPPSREEMTKNQVSLTCLVKGFYPSDIAVEWESNGQPENNYKTTPPVLDSDGSFALVSKLTVDKSRWQQGNVFSCSVMHEALHNHYTQKSLSLSPG light: QSALTQPASVSGSPGQSITISCTGTSSNIGTYKFVSWYQQHPDKAPKVLLYEVSKRPSGVSSRFSGSKSGNTASLTISGLQAEDQADYHCVSYAGSGTLLFGGGTKLTVLGQPKAAPSVTLFPPSSEELQANKATLVCLISDFYPGAVTVAWKADSSPVKAGVETTTPSKQSNNKYAASSYLSLTPEQWKSHRSYSCQVTHEGSTVEKTVAPTECS				58.1	binds	0.024	0.024
HC3B258 (bispecific antibody, human IgG1, lambda, L234A L235A, Differs from HC3B125 only by a codon for the C-terminal lysine K447, which is processed; also called CD3B376-Fab-Fc x MHGB732-LH-scFv-Fc (with K447 codon)) heavy: QVQLQQSGPRLVRPSQTLSLTCAISGDSVFNNNAAWSWIRQSPSRGLEWLGRTYYRSKWLYDYAVSVKSRITVNPDTSRNQFTLQLNSVTPEDTALYYCARGYSSSFDYWGQGTLVTVSSASTKGPSVFPLAPSSKSTSGGTAALGCLVKDYFPEPVTVSWNSGALTSGVHTFPAVLQSSGLYSLSSVVTVPSSSLGTQTYICNVNHKPSNTKVDKKVEPKSCDKTHTCPPCPAPEAAGGPSVFLFPPKPKDTLMISRTPEVTCVVVSVSHEDPEVKFNWYVDGVEVHNAKTKPREEQYNSTYRVVSVLTVLHQDWLNGKEYKCKVSNKALPAPIEKTISKAKGQPREPQVYVYPPSREEMTKNQVSLTCLVKGFYPSDIAVEWESNGQPENNYKTTPPVLDSDGSFALVSKLTVDKSRWQQGNVFSCSVMHEALHNHYTQKSLSLSPG light: QSALTQPASVSGSPGQSITISCTGTSSNIGTYKFVSWYQQHPDKAPKVLLYEVSKRPSGVSSRFSGSKSGNTASLTISGLQAEDQADYHCVSYAGSGTLLFGGGTKLTVLGQPKAAPSVTLFPPSSEELQANKATLVCLISDFYPGAVTVAWKADSSPVKAGVETTTPSKQSNNKYAASSYLSLTPEQWKSHRSYSCQVTHEGSTVEKTVAPTECS scFv: DIVMTQSPDSLAVSLGERATINCKSSQSVLHSSNNKNYLTWFQQKPGQPPKLLIYWASTRESGVPDRFSGSGSGTDFTLTISSLQAEDVAVYYCHQYYSTPPTFGQGTKVEIKGGSEGKSSGSGSESKSTGGSQVQLQQSGPGLVKPSQTLSLTCAISGDSVSSNSAAWNWIRQSPSRGLEWLGRTYYRSKWYNDYAVSVKSRITINPDTSKNQISLQLNSVTPEDTAVYYCAGDRRYGIVGLPFAYWGQGTLVTVSSEPKSSDKTHTCPPCPAPEAAGGPSVFLFPPKPKDTLMISRTPEVTCVVVSVSHEDPEVKFNWYVDGVEVHNAKTKPREEQYNSTYRVVSVLTVLHQDWLNGKEYKCKVSNKALPAPIEKTISKAKGQPREPQVYVLPPSREEMTKNQVSLLCLVKGFYPSDIAVEWESNGQPENNYLTWPPVLDSDGSFFLYSKLTVDKSRWQQGNVFSCSVMHEALHNHYTQKSLSLSPG		60	11				
D3C3B80 (bispecific antibody, human IgG1, lambda, L234A L235A, also called C3C3B80) scFv: DIQMTQSPSSLSASVGDRVTITCRASQGISNYLAWFQQKPGKAPKSLIYAASSLQSGVPSKFSGSGSGTDFTLTISSLQPEDFATYYCQQYNSYPYTFGQGTKLEIKGGSEGKSSGSGSESKSTGGSQVQLVQSGAEVKKPGASVKVSCKASGQTFTNYYIHWVRQAPGQGLEWMGIINPSGGSTSYAQKLQGRMTMTRDTSTSTVYMELSSLRSEDTAVYFCARQGPFIGDAFDIWGQGTTVTVSSEPKSSDKTHTCPPCPAPEAAGGPSVFLFPPKPKDTLMISRTPEVTCVVVSVSHEDPEVKFNWYVDGVEVHNAKTKPREEQYNSTYRVVSVLTVLHQDWLNGKEYKCKVSNKALPAPIEKTISKAKGQPREPQVYVLPPSREEMTKNQVSLLCLVKGFYPSDIAVEWESNGQPENNYLTWPPVLDSDGSFFLYSKLTVDKSRWQQGNVFSCSVMHEALHNHYTQKSLSLSPGK heavy: QVQLQQSGPRLVRPSQTLSLTCAISGDSVFNNNAAWSWIRQSPSRGLEWLGRTYYRSKWLYDYAVSVKSRITVNPDTSRNQFTLQLNSVTPEDTALYYCARGYSSSFDYWGQGTLVTVSSASTKGPSVFPLAPSSKSTSGGTAALGCLVKDYFPEPVTVSWNSGALTSGVHTFPAVLQSSGLYSLSSVVTVPSSSLGTQTYICNVNHKPSNTKVDKKVEPKSCDKTHTCPPCPAPEAAGGPSVFLFPPKPKDTLMISRTPEVTCVVVSVSHEDPEVKFNWYVDGVEVHNAKTKPREEQYNSTYRVVSVLTVLHQDWLNGKEYKCKVSNKALPAPIEKTISKAKGQPREPQVYVYPPSREEMTKNQVSLTCLVKGFYPSDIAVEWESNGQPENNYKTTPPVLDSDGSFALVSKLTVDKSRWQQGNVFSCSVMHEALHNHYTQKSLSLSPGK light: QSALTQPASVSGSPGQSITISCTGTSSNIGTYKFVSWYQQHPDKAPKVLLYEVSKRPSGVSSRFSGSKSGNTASLTISGLQAEDQADYHCVSYAGSGTLLFGGGTKLTVLGQPKAAPSVTLFPPSSEELQANKATLVCLISDFYPGAVTVAWKADSSPVKAGVETTTPSKQSNNKYAASSYLSLTPEQWKSHRSYSCQVTHEGSTVEKTVAPTECS					binds		0.033
